Results on twelve molecules are retold here after US20190071480A1 (Biogen, published 2019).

Test [1] has as its target T1, extracellular domain of activin receptor type IIB (ActRIIBecd), biotinylated (Homo sapiens (Human), UniProt Q13705 27-117, amino-biotinylated with amine-PEG3-Biotin).
T1 construct: immobilised on a streptavidin-coated sensor chip; also called biotinylated ActRIIBecd; extracellular domain of ActRIIB
T1 sequence: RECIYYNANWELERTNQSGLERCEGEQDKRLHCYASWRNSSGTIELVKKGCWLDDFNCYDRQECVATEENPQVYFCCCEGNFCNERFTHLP
Put plainly: Mean KD column of Table 5; method not restated (BIAcore as Example 5); species also listed in Table 4. In short, it runs like this:
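SPR, 25° C, 10 μl/min. Streptavidin surface carrying biotin-ActRIIBecd (50-250 RU); analyte series 1.11-90 nM in pH 4.5 glycine buffer. Control cell subtracted; kinetics and equilibrium binding fitted.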

Test [2] addresses T1, extracellular domain of activin …. Put plainly: BIAcore SPR as Example 5 (method not restated); SD ±0.67 nM. How it is done: (§1) Biosensor experiments. In one embodiment, experiments were performed on a BIAcore™ T100/T200 instrument (Pharmacia Biosensor AB) in the multichannel mode (serial flow path involving flow cells 1+2+3+4). Flow rate was 10 μl/min; temperature was 25° C.; and data were recorded at 2.5 points/s. All four segments of a sensor chip CMS were coated with streptavidin (Sigma) to a density of 2000 pg/mm² (2000 resonance units) by the aminocoupling procedure. ActRIIBecd (10 mg) and amine-PEG3-Biotin (10 mg, Pierce, Rockford, Ill.) were dissolved in 200 μl H₂O and 10 mg NaCNBH₃ was added to prepare biotinylated ActRIIBecd. The reaction mixture was heated at 70° C. for 24 h, after that a further 10 mg NaCNBH₃ was added and the reaction was heated at 70° C. for another 24 h. After cooling to room temperature, the mixture was desalted with the spin column (3,000 molecular weight cut off (MWCO)). […] Sensograms were recorded during flow of the analyte (the ActRIIBecd-associated polypeptides (i.e., domains) as previously described) first through flow cell 1 (control) then through flow cell 2 (biotinylated ActRIIBecd). […] The sensograms obtained at 1.11, 3.33, 10, 30, and 90 nM analyte were evaluated for equilibrium binding, association rate, and dissociation rate by using the programs supplied with the instrument (BIA evaluation 2.1; Software Handbook. 1995; Pharmacia Biosensor AB).
A general note: In SPR one partner is held on a chip, and binding of the other changes the refractive index at the surface.

Test [3] shares this target. Put plainly: BIAcore SPR as Example 5 (method not restated); SD ±3.57 nM. How it is done:
as §1

Test [4] has the same target. The test can be described thus: BIAcore SPR as Example 5 (method not restated); SD ±1.30 nM. How it is done:
as §1

Test [5] has the same target. Put plainly: BIAcore SPR as Example 5 (method not restated); SD ±2.66 nM. How it is done: as §1
For test [6] the target is unchanged. The test can be described thus: BIAcore SPR as Example 5 (method not restated); SD ±1.43 nM. How it is done:
as §1

The target is the same in test [7]. The test can be described thus: BIAcore SPR as Example 5 (method not restated); SD ±1.05 nM. How it is done:
as §1

The target is the same in test [8]. The test can be described thus: BIAcore SPR as Example 5 (method not restated); SD ±1.38 nM. The procedure:
as §1

For test [9] the target is unchanged. The test can be described thus: BIAcore SPR as Example 5 (method not restated); SD ±1.39 nM. The procedure: as §1
Test [10] shares this target. The test can be described thus: BIAcore SPR as Example 5 (method not restated); SD ±1.71 nM. The procedure:
as §1

Test [11] shares this target. Put plainly: BIAcore SPR as Example 5 (method not restated); SD ±1.13 nM. How it is done: as §1
Test [12] shares this target. The test can be described thus: BIAcore SPR as Example 5 (method not restated); SD ±1.76 nM. How it is done: as §1
Test [13] has the same target. The test can be described thus: BIAcore SPR, biotinylated ActRIIBecd on chip; SD ±18.12 nM. The procedure:
as §1

B1: SEQ ID NO: 292, cysteine pairs C15-C80^a, C44-C112^a, C48-C114^a, C79-C79^b (designed binder)
chain: GQAKRKGYKRLKSSCKRHPLYVDFKDVGWNDHAVAPPGYHAFYCHGECPFPLADHLNSDNHAIVQTKVNSVNSKDPKACCVPTELSAPSPLYLDENEKPVLKNYQDMVVHGCGCR
modifications: disulfides C15-C80 (intra), C44-C112 (intra), C48-C114 (intra), C79-C79 (inter)
notes: homodimer by intermolecular disulfide
Regarding B1, the Kd in test [1] and in [2] was 4.77 nM throughout.

B2: SEQ ID NO: 292, cysteine pairs C15-C15^b, C79-C114^a, C80-C112^a, C44-C48^a (designed binder)
chain: GQAKRKGYKRLKSSCKRHPLYVDFKDVGWNDHAVAPPGYHAFYCHGECPFPLADHLNSDNHAIVQTKVNSVNSKDPKACCVPTELSAPSPLYLDENEKPVLKNYQDMVVHGCGCR
modifications: disulfides C15-C15 (inter), C79-C114 (intra), C80-C112 (intra), C44-C48 (intra)
notes: as for B1
For B2, the Kd in test [3] and in test [1] was 5.81 nM in each case.

B3: SEQ ID NO: 292, cysteine pairs C80-C114^b, C79-C112^b, C44-C48^a (designed binder)
chain: GQAKRKGYKRLKSSCKRHPLYVDFKDVGWNDHAVAPPGYHAFYCHGECPFPLADHLNSDNHAIVQTKVNSVNSKDPKACCVPTELSAPSPLYLDENEKPVLKNYQDMVVHGCGCR
modifications: disulfides C80-C114 (inter), C79-C112 (inter), C44-C48 (intra)
notes: as for B1
Regarding B3, the Kd in [1] and in test [4] was 5.54 nM throughout.

B4: SEQ ID NO: 292, cysteine pairs C79-C80^a (designed binder)
chain: GQAKRKGYKRLKSSCKRHPLYVDFKDVGWNDHAVAPPGYHAFYCHGECPFPLADHLNSDNHAIVQTKVNSVNSKDPKACCVPTELSAPSPLYLDENEKPVLKNYQDMVVHGCGCR
modifications: disulfides C79-C80 (intra)
As for B4, the Kd in [5] and in test [1] was 29 nM throughout.

B5: SEQ ID NO: 308, cysteine pairs C59-C59^b, C8-C41^a, C9-C43^a, C88-C92^a (designed binder)
chain: NSKDPKACCVPTELSAPSPLYLDENEKPVLKNYQDMVVHGCGCRGQAKRKGYKRLKSSCKRHPLYVDFKDVGWNDHAVAPPGYHAFYCHGECPFPLADHLNSDNHAIVQTKVNSV
modifications: disulfides C59-C59 (inter), C8-C41 (intra), C9-C43 (intra), C88-C92 (intra)
notes: as for B1
Consider B5, for which the Kd in test [6] and in test [1] was 5.98 nM each time.

B6: SEQ ID NO: 276, cysteine pairs C67-C71^a, C8-C43^a, C9-C41^a, C109-C109^b (designed binder)
chain: NSKIPKACCVPTELSAISMLYLDENEKVVLKNYQDMVVEGCGCRVDFSDVGWNDWIVAPPGYHAFYCHGECPFPLADHLNSTNHAIVQTLVNSVAQAKHKQRKRLKSSCKRHPLY
modifications: disulfides C67-C71 (intra), C8-C43 (intra), C9-C41 (intra), C109-C109 (inter)
notes: as for B1
Turning to B6, the Kd in [7] and in test [1] was 7.66 nM in each case.

B7: SEQ ID NO: 276, cysteine pairs C67-C71^a, C8-C43^b, C9-C41^b, C109-C109^b (designed binder)
chain: NSKIPKACCVPTELSAISMLYLDENEKVVLKNYQDMVVEGCGCRVDFSDVGWNDWIVAPPGYHAFYCHGECPFPLADHLNSTNHAIVQTLVNSVAQAKHKQRKRLKSSCKRHPLY
modifications: disulfides C67-C71 (intra), C8-C43 (inter), C9-C41 (inter), C109-C109 (inter)
notes: as for B1
B7: the Kd in test [1] and in [8] was 6.31 nM each time.

B8: SEQ ID NO: 300, cysteine pairs C23-C27^a, C65-C65^b, C79-C112^a, C80-C114^a (designed binder)
chain: VDFKDVGWNDHAVAPPGYHAFYCHGECPFPLADHLNSDNHAIVQTKVNSVGQAKRKGYKRLKSSCKRHPLYNSKDPKACCVPTELSAPSPLYLDENEKPVLKNYQDMVVHGCGCR
modifications: disulfides C23-C27 (intra), C65-C65 (inter), C79-C112 (intra), C80-C114 (intra)
notes: as for B1
As for B8, the Kd in test [1] and in [9] was 5.14 nM in each case.

B9: SEQ ID NO: 300, cysteine pairs C23-C27^a, C65-C65^b, C79-C114^a, C80-C112^a (designed binder)
chain: VDFKDVGWNDHAVAPPGYHAFYCHGECPFPLADHLNSDNHAIVQTKVNSVGQAKRKGYKRLKSSCKRHPLYNSKDPKACCVPTELSAPSPLYLDENEKPVLKNYQDMVVHGCGCR
modifications: disulfides C23-C27 (intra), C65-C65 (inter), C79-C114 (intra), C80-C112 (intra)
notes: as for B1
With B9, the Kd in test [10] and in test [1] was 7.37 nM in each case.

B10: SEQ ID NO: 284, cysteine pairs C59-C59^b, C8-C41^a, C9-C43^a, C88-C92^a (designed binder)
chain: NSKIPKACCVPTELSAISMLYLDENEKVVLKNYQDMVVEGCGCRAQAKHKQRKRLKSSCKRHPLYVDFSDVGWNDWIVAPPGYHAFYCHGECPFPLADHLNSTNHAIVQTLVNSV
modifications: disulfides C59-C59 (inter), C8-C41 (intra), C9-C43 (intra), C88-C92 (intra)
notes: as for B1
For the molecule B10, the Kd in [11] and in [1] was 4.89 nM in each case.

B11: SEQ ID NO: 284, cysteine pairs C59-C59^b, C8-C41^b, C9-C43^b, C88-C92^a (designed binder)
chain: NSKIPKACCVPTELSAISMLYLDENEKVVLKNYQDMVVEGCGCRAQAKHKQRKRLKSSCKRHPLYVDFSDVGWNDWIVAPPGYHAFYCHGECPFPLADHLNSTNHAIVQTLVNSV
modifications: disulfides C59-C59 (inter), C8-C41 (inter), C9-C43 (inter), C88-C92 (intra)
notes: as for B1
Turning to B11, the Kd in test [12] and in test [1] was 5.79 nM each time.
As for VDFSDVGWNDWAVAPPGYHAFYCHGECPFPLADHLNSDNHAIVQTLVNSV [Clone No. 16 domain (ActRIIBecd-associated polypeptide)], binding in test [13] was put at a Kd of 56 nM.

For orientation: Kd means the constant that tells how readily two partners part at equilibrium. The low end stands for tighter binding, the high end for weaker binding.
